Source: US20050026233A1, “Methods of monitoring and modulating LKB1 activity and its downstream targets” (Medical Research Council, priority 2003, published 2005)

How the values were obtained:
AMPK (α1β1γ1) = target: T1, AMPK (α1β1γ1) (Rattus norvegicus, UniProt P54645); test: Activation of bacterially expressed AMPK by upstream kinase, SAMS peptide assay; type: biochemical, mammalian; details: recombinant AMPK α1β1γ1, MgATP, 30 min at 30° C
T1 construct: made in house; host or cells: bacteria (E. coli per the title of Neumann 2003)
T1 sequence (P54645 13-559 limits assumed): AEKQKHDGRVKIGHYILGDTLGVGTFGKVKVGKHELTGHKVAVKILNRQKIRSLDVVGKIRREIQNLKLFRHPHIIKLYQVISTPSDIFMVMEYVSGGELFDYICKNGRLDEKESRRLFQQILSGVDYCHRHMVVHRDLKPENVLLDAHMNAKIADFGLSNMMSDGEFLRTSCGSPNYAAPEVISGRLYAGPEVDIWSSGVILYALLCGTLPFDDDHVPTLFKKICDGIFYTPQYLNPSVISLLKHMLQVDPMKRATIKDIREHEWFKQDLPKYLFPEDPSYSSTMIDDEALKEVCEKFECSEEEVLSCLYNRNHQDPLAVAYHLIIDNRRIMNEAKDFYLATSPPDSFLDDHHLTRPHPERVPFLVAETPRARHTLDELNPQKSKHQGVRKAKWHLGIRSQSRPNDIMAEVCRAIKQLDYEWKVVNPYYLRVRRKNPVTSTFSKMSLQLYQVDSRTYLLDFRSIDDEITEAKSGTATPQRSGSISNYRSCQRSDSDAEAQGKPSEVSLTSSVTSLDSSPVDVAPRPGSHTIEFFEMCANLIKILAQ
T1 sequence (P80386 whole entry partner): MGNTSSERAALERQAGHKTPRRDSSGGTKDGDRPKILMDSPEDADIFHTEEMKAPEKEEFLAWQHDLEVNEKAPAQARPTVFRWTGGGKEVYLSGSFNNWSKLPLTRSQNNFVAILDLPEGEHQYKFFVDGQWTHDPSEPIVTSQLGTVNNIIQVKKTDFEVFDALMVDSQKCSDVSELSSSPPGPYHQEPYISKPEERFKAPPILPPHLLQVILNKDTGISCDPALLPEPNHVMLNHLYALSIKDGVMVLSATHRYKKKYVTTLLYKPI
T1 sequence (P80385 whole entry partner): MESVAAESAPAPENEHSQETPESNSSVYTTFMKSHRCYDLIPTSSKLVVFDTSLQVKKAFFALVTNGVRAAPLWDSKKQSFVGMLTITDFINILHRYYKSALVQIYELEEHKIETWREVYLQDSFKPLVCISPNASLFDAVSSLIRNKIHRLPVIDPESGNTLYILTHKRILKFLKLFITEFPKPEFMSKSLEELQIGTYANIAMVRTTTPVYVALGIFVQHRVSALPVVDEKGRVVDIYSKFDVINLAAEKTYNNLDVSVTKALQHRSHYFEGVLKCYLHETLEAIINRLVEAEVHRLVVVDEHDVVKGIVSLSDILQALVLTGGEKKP
Protocol: FIG. 4. Tos3p and LKB1 phosphorylate and activate AMPK in vitro. (A) Bacterially expressed AMPK (α1β1γ1 (Neumann, 2003)) was incubated with MgATP and GST-kinase bound to glutathione-Sepharose for 30 min at 30° C. Following centrifugation to remove the resin, AMPK activity in the supernatant was measured using the SAMS peptide assay (Davies, 1989).
The beads were removed by centrifugation, and proteins in the supernatant were analyzed by SDS-PAGE and autoradiography. Molecular size markers (kDa) are indicated. (C) Bacterially expressed AMPK (0.15 μg) was phosphorylated by GST-Tos3p and analysed by immunoblotting with anti-phosphothreonine 172 specific antibody (Cell Signalling Technologies). […]
Recombinant AMPK (α1β1γ1) expressed in bacteria (Neumann, 2003) was incubated with each of the kinases and MgATP, and AMPK activity was determined using the SAMS peptide assay. […]
Following centrifugation to remove the resin, AMPK activity in the supernatant was measured using the SAMS peptide assay (Davies, 1989).
Bacterially expressed AMPK (α1β1γ1) was purified by chromatography using Ni-NTA agarose (Qiagen) as previously described (the purification is as in Neumann et al., 2003 Protein Expression and Purification, incorporated herein by reference). […] Following brief centrifugation, the supernatant containing AMPK was removed and activity measured using the SAMS peptide assay (Davies et al., 1989). […]

AMPK = test: Phosphorylation of T172 of AMPK by immunoblotting with anti-phosphothreonine 172 antibody; type: biochemical, mammalian; details: immunoblot
Chain of AMPK (P54645 13-559 limits assumed): as the sequence (P54645 13-559 limits assumed) above
Chain of AMPK (P80386 whole entry partner): as the sequence (P80386 whole entry partner) above
Chain of AMPK (P80385 whole entry partner): as the sequence (P80385 whole entry partner) above
Protocol: The beads were removed by centrifugation, and proteins in the supernatant were analyzed by SDS-PAGE and autoradiography. Molecular size markers (kDa) are indicated. (C) Bacterially expressed AMPK (0.15 μg) was phosphorylated by GST-Tos3p and analysed by immunoblotting with anti-phosphothreonine 172 specific antibody (Cell Signalling Technologies). AMPK was also incubated with GST or partially purified rat liver AMPKK (Hawley, 1996).
Phosphorylation of T172 was determined by immunoblotting (FIG. 4E).
Bacterially expressed AMPK (α1β1γ1) was purified by chromatography using Ni-NTA agarose (Qiagen) as previously described (the purification is as in Neumann et al., 2003 Protein Expression and Purification, incorporated herein by reference). AMPK was incubated with 100 μM ATP, 5 mM MgCl2, 200 μM AMP and 1 mM DTT in 50 mM Hepes, pH 7.4 in the presence or absence of upstream kinase for 30 min at 30° C. Following brief centrifugation, the supernatant containing AMPK was removed and activity measured using the SAMS peptide assay (Davies et al., 1989). Phosphorylation of T172 was determined by Western blotting using an antibody that specifically recognizes phospho-threonine 172 within the α subunit of AMPK (Cell Signaling Technologies).

AMPK activity after incubation with upstream kinase (AMPK (α1β1γ1)): activated recombinant AMPK
B1: LKB1: FLAG-tagged full length wild-type mouse LKB1 tumor suppressor kinase purified from COS7 cell lysates (protein, UniProt Q9WTK7 1-436, looked up)
chain: MDVADPEPLGLFSEGELMSVGMDTFIHRIDSTEVIYQPRRKRAKLIGKYLMGDLLGEGSYGKVKEVLDSETLCRRAVKILKKKKLRRIPNGEANVKKEIQLLRRLRHRNVIQLVDVLYNEEKQKMYMVMEYCVCGMQEMLDSVPEKRFPVCQAHGYFRQLIDGLEYLHSQGIVHKDIKPGNLLLTTNGTLKISDLGVAEALHPFAVDDTCRTSQGSPAFQPPEIANGLDTFSGFKVDIWSAGVTLYNITTGLYPFEGDNIYKLFENIGRGDFTIPCDCGPPLSDLLRGMLEYEPAKRFSIRQIRQHSWFRKKHPLAEALVPIPPSPDTKDRWRSMTVVPYLEDLHGRAEEEEEEDLFDIEDGIIYTQDFTVPGQVLEEEVGQNGQSHSLPKAVCVNGTEPQLSSKVKPEGRPGTANPARKVCSSNKIRRLSACKQQ
modifications: full-length FLAG tag
notes: FLAG-tagged full length wild-type mouse LKB1 tumor suppressor kinase purified from COS7 cell lysates
Phosphorylation of AMPK on T172 (AMPK): phosphorylated T172
